Key:
[1] = molecular target: T1, FcγRIIIa (human, UniProt P08637 17-208); experiment: ratio of SPR KDs: KD of GpH7-TA22/GpH7-B78/GpL16-k0 divided by KD of this antibody
T1 construct: extracellular domain; also called FcgRIIIa; CD16A; not shown: His tag attached to the C terminus
Description: Then, GpH7-TA54 (SEQ ID NO: 46) resulting from the introduction of Y296W into GpH7-TA22 was constructed, and expressed and prepared in combination with GpH7-B78 according to the method described in Reference Example 1. Furthermore, GpH7-TA58 (SEQ ID NO: 45) resulting from the introduction of Y296W into GpH7-B78 was constructed, and expressed and prepared in combination with GpH7-TA22 according to the method described in Reference Example 1. To assess the effect of combination with Y296W, the prepared antibodies were compared for the FcγRIIIa-binding activity according to the method described in Reference Example 2 (Table 17).
(§1) Analysis of interaction between objective antibody and the FcγR was carried out using Biacore T100 (GE Healthcare). HBS-EP+ (GE Healthcare) was used as the running buffer, and the measurement temperature was set to 25° C. Chips produced by immobilizing the antigen peptide by the amine coupling method to a Series S Sencor Chip CM5 (GE Healthcare), or alternatively, chips produced by allowing preliminarily biotinylated antigen peptides to interact with and immobilize onto a Series S Sensor Chip SA (certified) (GE Healthcare) were used. Antibodies of interest were captured onto an antigen peptide-immobilized chip, and allowed to interact to each FcγR diluted with running buffer. To regenerate and repeatedly use the chip, the antibodies captured on the chip were washed off by reacting 10 mM glycine-HCl, pH 1.5.

[2] = molecular target: T1, FcγRIIIa; experiment: ratio of SPR KDs: KD of GpH7-TA7/GpH7-B78/GpL16-k0 divided by KD of this antibody
Description: First, it was considered which H chain should be introduced with Y296W. GpH7-TA52 (SEQ ID NO: 44) resulting from the introduction of the mutation Y296W into GpH7-TA7 was constructed, and expressed and prepared in combination with GpH7-B78 according to the method described in Reference Example 1. Furthermore, GpH7-TA58 (SEQ ID NO: 45) resulting from the introduction of Y296W into GpH7-B78 was constructed, and expressed and prepared in combination with GpH7-TA22 according to the method described in Reference Example 1. To assess the effects of combinations with Y296W, the prepared antibodies were compared for the FcγRIIIa-binding activity according to the method described in Reference Example 2 (Table 16).
as §1

[3] = molecular target: T2, FcγRIIIa F extracellular domain with C-terminal His tag (human, UniProt P08637 17-208); experiment: SPR (Biacore), antibody captured on chip, soluble FcγR as analyte, 1:1 Langmuir fit
T2 construct: extracellular domain; Soluble receptor, F158 allotype; also called FcgRIIIa F; FcgRIIIaF; not shown: His tag at the C terminus
Protocol: (§2) Specifically, H240-Hl134 (SEQ ID NO: 88) resulting from introduction of L234Y/L235Y/G236W/H268D/S298A into H240-Hl033 and H240-Kn132 (SEQ ID NO: 89) resulting from introduction of K326D/A330M/K334E into H240-Kn033 were constructed according to the method described in Reference Example 1.
(§3) Analysis of interaction between objective antibody and the FcγR was carried out using Biacore T100 (GE Healthcare), Biacore T200, Biacore A100, and Biacore 4000. HBS-EP+ (GE Healthcare) was used as the running buffer, and the measurement temperature was set to 25° C. Chips produced by immobilizing the antigen peptide by the amine coupling method to a Series S sensor Chip CM5 (GE Healthcare), chips produced by allowing preliminarily biotinylated antigen peptides to interact with and immobilize onto a Series S Sensor Chip SA (certified) (GE Healthcare), chips produced by immobilizing Protein L (ACTIGEN, BioVision) to Series S Sencor Chip CM5 (GE Healthcare), or chips produced by immobilizing Protein A/G (Thermo Scientific) to Series S Sencor Chip CM5 (GE Healthcare) were used. Antibodies of interest were captured onto these chips, and allowed to interact to each FcγR diluted with running buffer. To regenerate and repeatedly use the chip, the antibodies captured onto the chip were washed off by reacting 10 mM glycine-HCl, pH 1.5.

[4] = molecular target: T3, FcγRIIIa V extracellular domain with C-terminal His tag (human, UniProt P08637 17-208); experiment: as above
T3 construct: extracellular domain; Soluble receptor, V158 allotype; also called FcgRIIIa V; FcgRIIIaV; not shown: His tag at the C terminus
Protocol: as §2, §3

T1 sequence (P08637 17-208): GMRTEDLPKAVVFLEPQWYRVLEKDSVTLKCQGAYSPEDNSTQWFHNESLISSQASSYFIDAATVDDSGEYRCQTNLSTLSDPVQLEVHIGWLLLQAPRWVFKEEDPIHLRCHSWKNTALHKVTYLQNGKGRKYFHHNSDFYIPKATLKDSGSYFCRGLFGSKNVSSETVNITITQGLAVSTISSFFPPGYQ
T3 sequence (P08637 17-208 F176V): as the sequence (P08637 17-208) above, with F160V counted along it
T2 sequence (P08637 17-208): as the sequence (P08637 17-208) above

B1: GpH7-TA22/GpH7-TA58/GpL16-k0 (antibody, human IgG1, kappa)
heavy 1: QVQLVQSGAEVKKPGASVTVSCKASGYTFTDYEMHWIRQPPGEGLEWIGAIDPKTGDTAYSESFQDRVTLTADKSTSTAYMELSSLTSEDTAVYYCTRFYSYTYWGQGTLVTVSSASTKGPSVFPLAPSSKSTSGGTAALGCLVKDYFPEPVTVSWNSGALTSGVHTFPAVLQSSGLYSLSSVVTVPSSSLGTQTYICNVNHKPSNTKVDKKVEPKSCDKTHTCPPCPAPEYLWGPDVFLFPPKPKDTLMISRTPEVTCVVVDVSHEDPEVKFNWYVDGVEVHNAKTKPREEQYNATYRVVSVLTVLHQDWLNGKEYKCKVSNKALPAPIEKTISKAKGQPREPQVYTLPPSRKELTKNQVSLTCLVKGFYPSDIAVEWESNGQPENNYKTTPPVLDSDGSFFLYSKLTVDKSRWQQGNVFSCSVMHEALHNRYTQKSLSLSP
heavy 2: QVQLVQSGAEVKKPGASVTVSCKASGYTFTDYEMHWIRQPPGEGLEWIGAIDPKTGDTAYSESFQDRVTLTADKSTSTAYMELSSLTSEDTAVYYCTRFYSYTYWGQGTLVTVSSASTKGPSVFPLAPSSKSTSGGTAALGCLVKDYFPEPVTVSWNSGALTSGVHTFPAVLQSSGLYSLSSVVTVPSSSLGTQTYICNVNHKPSNTKVDKKVEPKSCDKTHTCPPCPAPELLGGPDVFLFPPKPKDTLMISRTPEVTCVVVDVSHEDPEVKFNWYVDGVEVHNAKTKPREEQWNSTYRVVSVLTVLHQDWLNGKEYKCKVSNKALPLPEEKTISKAKGQPREPQVYTLPPSRDELTKNQVSLTCLVKGFYPSDIAVEWESNGQPENNYKTTPPVLDSDGSFFLYSKLTVDKSRWQQGNVFSCSVMHEALHNHYTQESLSLSP
light: DIVMTQSPLSLPVTPGEPASISCQASESLVHSNRNTYLHWYLQKPGQSPQLLIYKVSNRFSGVPDRFSGSGSGTDFTLKISRVEAEDVGVYYCSQNTHVPPTFGQGTKVEIERTVAAPSVFIFPPSDEQLKSGTASVVCLLNNFYPREAKVQWKVDNALQSGNSQESVTEQDSKDSTYSLSSTLTLSKADYEKHKVYACEVTHQGLSSPVTKSFNRGEC
notes: Anti-glypican-3 IgG1 heterodimer; L234Y/G236W/S239D/S298A in H1, S239D/A330L/I332E/Y296W in H2
[1]
  KD ratio: 1 fold

B2: GpH7-TA54/GpH7-B78/GpL16-k0 (antibody, human IgG1, kappa)
heavy 1: QVQLVQSGAEVKKPGASVTVSCKASGYTFTDYEMHWIRQPPGEGLEWIGAIDPKTGDTAYSESFQDRVTLTADKSTSTAYMELSSLTSEDTAVYYCTRFYSYTYWGQGTLVTVSSASTKGPSVFPLAPSSKSTSGGTAALGCLVKDYFPEPVTVSWNSGALTSGVHTFPAVLQSSGLYSLSSVVTVPSSSLGTQTYICNVNHKPSNTKVDKKVEPKSCDKTHTCPPCPAPEYLWGPDVFLFPPKPKDTLMISRTPEVTCVVVDVSHEDPEVKFNWYVDGVEVHNAKTKPREEQWNATYRVVSVLTVLHQDWLNGKEYKCKVSNKALPAPIEKTISKAKGQPREPQVYTLPPSRKELTKNQVSLTCLVKGFYPSDIAVEWESNGQPENNYKTTPPVLDSDGSFFLYSKLTVDKSRWQQGNVFSCSVMHEALHNRYTQKSLSLSP
heavy 2: QVQLVQSGAEVKKPGASVTVSCKASGYTFTDYEMHWIRQPPGEGLEWIGAIDPKTGDTAYSESFQDRVTLTADKSTSTAYMELSSLTSEDTAVYYCTRFYSYTYWGQGTLVTVSSASTKGPSVFPLAPSSKSTSGGTAALGCLVKDYFPEPVTVSWNSGALTSGVHTFPAVLQSSGLYSLSSVVTVPSSSLGTQTYICNVNHKPSNTKVDKKVEPKSCDKTHTCPPCPAPELLGGPDVFLFPPKPKDTLMISRTPEVTCVVVDVSHEDPEVKFNWYVDGVEVHNAKTKPREEQYNSTYRVVSVLTVLHQDWLNGKEYKCKVSNKALPLPEEKTISKAKGQPREPQVYTLPPSRDELTKNQVSLTCLVKGFYPSDIAVEWESNGQPENNYKTTPPVLDSDGSFFLYSKLTVDKSRWQQGNVFSCSVMHEALHNHYTQESLSLSP
light: DIVMTQSPLSLPVTPGEPASISCQASESLVHSNRNTYLHWYLQKPGQSPQLLIYKVSNRFSGVPDRFSGSGSGTDFTLKISRVEAEDVGVYYCSQNTHVPPTFGQGTKVEIERTVAAPSVFIFPPSDEQLKSGTASVVCLLNNFYPREAKVQWKVDNALQSGNSQESVTEQDSKDSTYSLSSTLTLSKADYEKHKVYACEVTHQGLSSPVTKSFNRGEC
notes: Anti-glypican-3 IgG1 heterodimer; L234Y/G236W/S239D/S298A/Y296W in H1, S239D/A330L/I332E in H2
[1]
  KD ratio: 1.3 fold

B3: GpH7-TA52/GpH7-B78/GpL16-k0 (antibody, human IgG1, kappa)
heavy 1: QVQLVQSGAEVKKPGASVTVSCKASGYTFTDYEMHWIRQPPGEGLEWIGAIDPKTGDTAYSESFQDRVTLTADKSTSTAYMELSSLTSEDTAVYYCTRFYSYTYWGQGTLVTVSSASTKGPSVFPLAPSSKSTSGGTAALGCLVKDYFPEPVTVSWNSGALTSGVHTFPAVLQSSGLYSLSSVVTVPSSSLGTQTYICNVNHKPSNTKVDKKVEPKSCDKTHTCPPCPAPEYLWGPSVFLFPPKPKDTLMISRTPEVTCVVVDVSHEDPEVKFNWYVDGVEVHNAKTKPREEQWNATYRVVSVLTVLHQDWLNGKEYKCKVSNKALPAPIEKTISKAKGQPREPQVYTLPPSRKELTKNQVSLTCLVKGFYPSDIAVEWESNGQPENNYKTTPPVLDSDGSFFLYSKLTVDKSRWQQGNVFSCSVMHEALHNRYTQKSLSLSP
heavy 2: QVQLVQSGAEVKKPGASVTVSCKASGYTFTDYEMHWIRQPPGEGLEWIGAIDPKTGDTAYSESFQDRVTLTADKSTSTAYMELSSLTSEDTAVYYCTRFYSYTYWGQGTLVTVSSASTKGPSVFPLAPSSKSTSGGTAALGCLVKDYFPEPVTVSWNSGALTSGVHTFPAVLQSSGLYSLSSVVTVPSSSLGTQTYICNVNHKPSNTKVDKKVEPKSCDKTHTCPPCPAPELLGGPDVFLFPPKPKDTLMISRTPEVTCVVVDVSHEDPEVKFNWYVDGVEVHNAKTKPREEQYNSTYRVVSVLTVLHQDWLNGKEYKCKVSNKALPLPEEKTISKAKGQPREPQVYTLPPSRDELTKNQVSLTCLVKGFYPSDIAVEWESNGQPENNYKTTPPVLDSDGSFFLYSKLTVDKSRWQQGNVFSCSVMHEALHNHYTQESLSLSP
light: DIVMTQSPLSLPVTPGEPASISCQASESLVHSNRNTYLHWYLQKPGQSPQLLIYKVSNRFSGVPDRFSGSGSGTDFTLKISRVEAEDVGVYYCSQNTHVPPTFGQGTKVEIERTVAAPSVFIFPPSDEQLKSGTASVVCLLNNFYPREAKVQWKVDNALQSGNSQESVTEQDSKDSTYSLSSTLTLSKADYEKHKVYACEVTHQGLSSPVTKSFNRGEC
notes: Anti-glypican-3 IgG1 heterodimer; L234Y/G236W/S298A/Y296W in H1, S239D/A330L/I332E in H2
[2]
  KD ratio: 1.8 fold

B4: H240-Kn061/H240-Hl134/L73-k0 (antibody, human IgG1, kappa)
heavy 1: QDQLVQSGAEVKKPGASVKVSCKASGFNIKDTYIQWVRQAPGQGLEWMGRIDPLRKQTKYREKFEGRVTITADTSTNTAYMELSSLRSEDTAVYYCVRSGREFDYWGQGTLVTVSSASTKGPSVFPLAPSSKSTSGGTAALGCLVKDYFPEPVTVSWNSGALTSGVHTFPAVLQSSGLYSLSSVVTVPSSSLGTQTYICNVNHKPSNTKVDKKVEPKSCDKTHTCPPCPAPEYYWGPSVFLFPPKPKDTLMISRTPEVTCVVVDVSDEDPEVKFNWYVDGVEVHNAKTKPREEQYNATYRVVSVLTVLHQDWLNGKEYKCKVSNKALPAPIEKTISKAKGQPREPQVCTLPPSRDELTKNQVSLWCLVKGFYPSDIAVEWESNGQPENNYKTTPPVLDSDGSFFLYSKLTVDKSRWQQGNVFSCSVMHEALHNHYTQKSLSLSP
heavy 2: QDQLVQSGAEVKKPGASVKVSCKASGFNIKDTYIQWVRQAPGQGLEWMGRIDPLRKQTKYREKFEGRVTITADTSTNTAYMELSSLRSEDTAVYYCVRSGREFDYWGQGTLVTVSSASTKGPSVFPLAPSSKSTSGGTAALGCLVKDYFPEPVTVSWNSGALTSGVHTFPAVLQSSGLYSLSSVVTVPSSSLGTQTYICNVNHKPSNTKVDKKVEPKSCDKTHTCPPCPAPEYYWGPSVFLFPPKPKDTLMISRTPEVTCVVVDVSDEDPEVKFNWYVDGVEVHNAKTKPREEQYNATYRVVSVLTVLHQDWLNGKEYKCKVSNKALPAPIEKTISKAKGQPREPQVYTLPPSRCELTKNQVSLSCAVKGFYPSDIAVEWESNGQPENNYKTTPPVLDSDGSFFLVSKLTVDKSRWQQGNVFSCSVMHEALHNHYTQKSLSLSP
light: DIQMTQSPSSLSASVGDRVTITCRASQDIHKYIAWYQQKPGQAPRLLIQYTSTLQPGVPSRFSGSGSGTDYTFTISSLQPEDIATYYCLQYEQLRTFGGGTKVEIKRTVAAPSVFIFPPSDEQLKSGTASVVCLLNNFYPREAKVQWKVDNALQSGNSQESVTEQDSKDSTYSLSSTLTLSKADYEKHKVYACEVTHQGLSSPVTKSFNRGEC
notes: Anti-epiregulin IgG1, knobs-into-holes; called homodimerized as both H chains carry L234Y/L235Y/G236W/H268D/S298A
[3]
  Kd: 660 nM
[4]
  Kd: 86 nM

— patent US20150344570A1 (published 2015)
